Assay results reported in PMC9887734, “Meeting abstracts from the 10th International Conference on cGMP: Generators, Effectors and Therapeutic Implications” (Journal of Translational Medicine, 2023).

Tests used:
[1] = target: T1, CNGB3 subunit of the human cone photoreceptor CNG channel (human, UniProt Q9NQW8 1-809); experiment: cryo-EM structure; human cone photoreceptor CNG channel CNGA3/CNGB3 in the apo state; conditions: both partners purified
T1 construct: CNGB3, human cone photoreceptor cyclic nucleotide-gated channel subunit; One copy stands in the CNGA3/CNGB3 channel
T1 sequence (looked up): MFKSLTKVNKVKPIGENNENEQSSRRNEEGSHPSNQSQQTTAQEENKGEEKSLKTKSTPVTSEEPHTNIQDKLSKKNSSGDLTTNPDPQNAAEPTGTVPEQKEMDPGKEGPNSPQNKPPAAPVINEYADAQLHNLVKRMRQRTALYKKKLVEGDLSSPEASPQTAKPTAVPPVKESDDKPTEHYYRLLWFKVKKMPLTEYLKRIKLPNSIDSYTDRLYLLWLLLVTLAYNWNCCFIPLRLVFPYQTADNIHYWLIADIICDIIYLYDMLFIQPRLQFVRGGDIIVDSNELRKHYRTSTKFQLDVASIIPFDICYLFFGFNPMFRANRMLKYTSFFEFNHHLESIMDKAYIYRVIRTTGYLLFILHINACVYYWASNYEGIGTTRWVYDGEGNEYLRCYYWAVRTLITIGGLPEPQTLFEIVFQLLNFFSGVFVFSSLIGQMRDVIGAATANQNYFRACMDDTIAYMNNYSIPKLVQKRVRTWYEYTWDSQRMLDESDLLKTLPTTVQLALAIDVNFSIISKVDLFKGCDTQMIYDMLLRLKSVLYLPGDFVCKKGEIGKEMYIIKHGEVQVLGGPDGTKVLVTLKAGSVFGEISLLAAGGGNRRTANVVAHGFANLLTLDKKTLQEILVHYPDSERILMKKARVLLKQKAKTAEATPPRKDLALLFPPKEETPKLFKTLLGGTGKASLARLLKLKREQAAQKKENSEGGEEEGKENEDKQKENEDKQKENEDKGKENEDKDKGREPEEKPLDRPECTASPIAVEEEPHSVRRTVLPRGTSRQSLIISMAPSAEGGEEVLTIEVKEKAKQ

[2] = target: the molecule itself; experiment: as above

B1: CNGA3 subunit of the human cone photoreceptor CNG channel (natural protein, UniProt Q16281 1-694, looked up)
chain: MAKINTQYSHPSRTHLKVKTSDRDLNRAENGLSRAHSSSEETSSVLQPGIAMETRGLADSGQGSFTGQGIARLSRLIFLLRRWAARHVHHQDQGPDSFPDRFRGAELKEVSSQESNAQANVGSQEPADRGRSAWPLAKCNTNTSNNTEEEKKTKKKDAIVVDPSSNLYYRWLTAIALPVFYNWYLLICRACFDELQSEYLMLWLVLDYSADVLYVLDVLVRARTGFLEQGLMVSDTNRLWQHYKTTTQFKLDVLSLVPTDLAYLKVGTNYPEVRFNRLLKFSRLFEFFDRTETRTNYPNMFRIGNLVLYILIIIHWNACIYFAISKFIGFGTDSWVYPNISIPEHGRLSRKYIYSLYWSTLTLTTIGETPPPVKDEEYLFVVVDFLVGVLIFATIVGNVGSMISNMNASRAEFQAKIDSIKQYMQFRKVTKDLETRVIRWFDYLWANKKTVDEKEVLKSLPDKLKAEIAINVHLDTLKKVRIFQDCEAGLLVELVLKLRPTVFSPGDYICKKGDIGKEMYIINEGKLAVVADDGVTQFVVLSDGSYFGEISILNIKGSKSGNRRTANIRSIGYSDLFCLSKDDLMEALTEYPEAKKALEEKGRQILMKDNLIDEELARAGADPKDLEEKVEQLGSSLDTLQTRFARLLAEYNATQMKMKQRLSQLESQVKGGGDKPLADGEVPGDATKTEDKQQ
notes: CNGA3, human cone photoreceptor cyclic nucleotide-gated channel subunit; Three copies stand in the CNGA3/CNGB3 channel whose cryo-EM structure (apo state) is reported
B1 was tested. Which “stoichiometry N” value [1] did it give?
Its value is 3 CNGA3 per CNGB3.

Does B1 bind [2]?
Result: binds
